The record followed here is patent US20240239894A1, “THERAPEUTIC BINDING MOLECULES” (MedImmune Limited, priority 2020, published 2024).

The test system of one assay is HEK293 JI parental. In words: E02-GL MESF on cell line. The settings on record: B7-H4 negative. It is filed as cell-based.
Another assay concerns HT29 hB7H4 clone 44. In words: E02-GL MESF on cell line. It is filed as cell-based, human.
In assay [1] the test system is B7-H4 expressing versus WT HT29, CT26 and 4T1 tumours. Description: In vivo imaging of 800CW labelled antibody. More on the design: species or system mice. Conditions: 800CW label; HT29 days 3, 7, 14; CT26 days 3 and 7; 4T1 day 7. The text has this: Antibody clones (e.g. E02_GL) were labelled with 800CW (LI-COR Biosciences). 800 CW labelled R347 was used in control experiments.
B7-H4 expressing CT26/4TI/HT29 cancer cells were grafted (e.g. inoculated subcutaneously) to the left flank […] nude mice (Charles River Laboratories, Wilmington, MA), and non-B7-H4 expressing CT26/4TI/HT29 cancer cells were grafted to the right flank to provide an internal control. Mice were kept for a week to develop tumours, 800CW-labelled E02_GL was injected. 800CW-labelled R347 was injected into control mice. […]
In vivo imaging studies were performed as outlined under Materials and Methods (above), namely with 800CW labelled antibody (E02_GL). “E02-GL” antibody has the CDR/VH sequences (e.g. corresponds to) of ZY0EQD-E02 (“GL” means the antibody has been germlined).

A further assay concerns OVCAR4 xenograft. Description: Tumour xenograft. The class given is in vivo, mice. Conditions: cisplatin refractory ovarian cancer, high B7-H4. The procedure:
(§1) Tumour xenografts were prepared on mice using the following cancer cell lines: • OVCAR4 (Cisplatin refractory ovarian cancer; high B7-H4 expression) • HCC1569 (HER2 positive breast cancer; heterogeneous B7-H4 expression) • MDA-MB-468 (Triple negative breast cancer; low B7-H4 expression)

The subject of a further assay is MDA-MB-468 xenograft. In words: Tumour xenograft. The class given is in vivo, mice. Conditions: triple negative breast cancer, low B7-H4. The procedure: as §1
The test system of another assay is HCC1569 xenograft. Description: Tumour xenograft. The class given is in vivo, mice. Conditions: HER2 positive breast cancer, heterogeneous B7-H4. The procedure: as §1
In assay [2] the test system is B7-H4 heterogeneous HT29 tumours (1:1 expressing and non-expressing). In words: Bystander killing in vivo. An excerpt:
B7-H4 heterogeneous tumours were generated by co-implantation of B7-H4 expressing HT29 cell lines with non-expressing HT29 cells (1:1 ratio). […] This is highly advantageous, as the inventors have found B7-H4 to be heterogeneously expressed within tumours.

Another assay concerns HCC1954 tumour xenograft. Description: gamma H2AX immunohistochemistry in tumour xenograft. It is filed as in vivo. The settings on record: up to 10 days following treatment. The procedure: Tumour xenograft models were generated (using HCC1954 cells), and treated with E02-GL-SG3249. “E02-GL” antibody has the CDR/VH sequences (e.g. corresponds to) of ZY0EQD-E02 (“GL” means the antibody has been germlined).
Immunohistochemistry was then performed to determine gamma H2AX (marker of double strand breaks) following treatment.

The next assay has as its system HBCx-9. In words: PDX model. The settings on record: HBCx-9, Breast (Triple negative); 0.3 mg/kg vs vehicle. It is filed as in vivo. An excerpt:
(§2) Patient derived xenograft models were generated using cancer cell lines with varying levels of B7-H4 expression, as outlined in Table 16. […] “E02-GL” antibody has the CDR/VH sequences (e.g. corresponds to) of ZY0EQD-E02 (“GL” means the antibody has been germlined).

The next assay concerns CTG-1106. Description: PDX model. Conditions: CTG-1106, Breast (Triple negative); 0.3 mg/kg vs vehicle. The class given is in vivo.
Excerpt: as §2

In another assay the test system is CTG-012. In words: PDX model. It is filed as in vivo. The settings on record: CTG-012, Breast (Triple negative); 0.3 mg/kg vs vehicle.
Excerpt: as §2

The next assay concerns CTG-0992. Description: PDX model. The class given is in vivo. The settings on record: CTG-0992, Ovarian; 0.3 mg/kg vs vehicle.
Excerpt: as §2

A further assay concerns CTG-052. In words: PDX model. The class given is in vivo. Conditions: CTG-052, Breast (Triple negative); 0.3 mg/kg vs vehicle.
Excerpt: as §2

A further assay relates to T272. In words: PDX model. Conditions: T272, Breast (HR+); 0.3 mg/kg vs vehicle. The class given is in vivo.
Excerpt: as §2

Another assay relates to CTG-1086. Description: PDX model. It is filed as in vivo. The settings on record: CTG-1086, Ovarian; 0.3 mg/kg vs vehicle.
Excerpt: as §2

For a further assay, the system named is HBCx-11. In words: PDX model. It is filed as in vivo. Conditions: HBCx-11, Breast (Triple negative); 0.3 mg/kg vs vehicle.
Excerpt: as §2

The next assay concerns T168. In words: PDX model. It is filed as in vivo. Conditions: T168, Breast (HR+); 0.3 mg/kg vs vehicle.
Excerpt: as §2

The next assay relates to HBCx-10. In words: PDX model. The class given is in vivo. Conditions: HBCx-10, Breast (Triple negative); 0.3 mg/kg vs vehicle.
Excerpt: as §2

The subject of a further assay is T330. In words: PDX model. It is filed as in vivo. The settings on record: T330, Breast (Triple negative); 0.3 mg/kg vs vehicle.
Excerpt: as §2

The next assay has as its system HCC1569 cells. In words: Western blot DNA damage response. It is filed as cell-based. The settings on record: 100 ng/ml ADC, 100 pM SG3199. The procedure: Following treatment of HCC1569 cells with E02-GL-SG3249, and SG3199 as a control (at 100 ng/ml and 100 pM, respectively), lysate was prepared and subjected to western blot analysis with antibodies to pATR, ATR, pChk1, Chk1, pRPA32, RPA32, pATM, ATM (all involved in ATR signalling), pChk2, ChK2, pKAP1, KAP1 (all involved in ATM signalling), pDNA-PK, DNA-PK, pH2AX, H2AX, pBRCA1, BRCA1 (all involved in DNA double strand break), pFANCD2 and GAPDH (load control). Negative controls were PBS treatment alone.

B1: E02-GL: germlined ZY0EQD-E02, VH SEQ ID NO: 45, VL SEQ ID NO: 34; antibody intermediate of E02-GL-SG3932 (antibody, V domains shown)
VH: QVQLQQWGAGLLKPSETLSLACTVYGGSFSGYYWNWIRQPPGKGLEWIGEINHSGSTSYNPSLKSRVTISVDTSKNQFSLKLSSVTAADTAVYYCARVLYNWNVDSWGQGTLVTVSS
VL: DIQMTQSPSSLSASVGDRVTITCRASQDIRNDVGWYQQKPGKAPKRLIYAASRLQSGVPSRFSGSGSGTEFTLTISSLQPEDFATYYCLQHNSYPRTFGQGTKVEIK
For the molecule B1, the “E02-GL MESF” value is 3,266 MESF in the assay with HEK293 JI parental and 147,125 MESF in the assay with HT29 hB7H4 clone 44. Besides, in assay [1], the “localization to the B7-H4 expressing tumour compared to the WT tumour” value is reported as “Preferential localization”.

B2: E02-GL-SG3249: clone E02-GL (Maia heavy chain backbone) conjugated to the PBD cytotoxin SG3249 (conjugate)
heavy: QVQLQQWGAGLLKPSETLSLACTVYGGSFSGYYWNWIRQPPGKGLEWIGEINHSGSTSYNPSLKSRVTISVDTSKNQFSLKLSSVTAADTAVYYCARVLYNWNVDSWGQGTLVTVSSASTKGPSVFPLAPSSKSTSGGTAALGCLVKDYFPEPVTVSWNSGALTSGVHTFPAVLQSSGLYSLSSVVTVPSSSLGTQTYICNVNHKPSNTKVDKRVEPKSCDKTHTCPPCPAPELLGGPSCVFLFPPKPKDTLMISRTPEVTCVVVDVSHEDPEVKFNWYVDGVEVHNAKTKPREEQYNSTYRVVSVLTVLHQDWLNGKEYKCKVSNKALPAPIEKTISKAKGQPREPQVYTLPPSREEMTKNQVSLTCLVKGFYPSDIAVEWESNGQPENNYKTTPPVLDSDGSFFLYSKLTVDKSRWQQGNVFSCSVMHEALHNHYTQKSLSLSPGK
light: DIQMTQSPSSLSASVGDRVTITCRASQDIRNDVGWYQQKPGKAPKRLIYAASRLQSGVPSRFSGSGSGTEFTLTISSLQPEDFATYYCLQHNSYPRTFGQGTKVEIKRTVAAPSVFIFPPSDEQLKSGTASVVCLLNNFYPREAKVQWKVDNALQSGNSQESVTEQDSKDSTYSLSSTLTLSKADYEKHKVYACEVTHQGLSSPVTKSFNRGEC
B2: the “tumour volume versus vehicle” value in the assay with OVCAR4 xenograft, in the assay on MDA-MB-468 xenograft and in the assay on HCC1569 xenograft was “significant decrease in tumour volume” throughout. The “growth suppression of heterogeneous xenografts” value in [2] was “pronounced”. For the same molecule, in the assay with HCC1954 tumour xenograft, the “gamma H2AX positive tumour cells” value is “Increased numbers of gamma H2AX positive tumour cells”. Moreover, the “% Tumour Growth Inhibition (TGI)” value worked out at 70% in the assay with HBCx-9; 30% in the assay with CTG-1106; 90% in the assay with CTG-012; 0% with CTG-0992; 30% with CTG-052; 30% with T272. Further, the “% Tumour Growth Inhibition (TGI)” value in the assay on CTG-1086 is 20%; with HBCx-11 it was 80%; with T168 it was 60%; in the assay with HBCx-10, 90%; with T330, 70%. Further, in the assay with HCC1569 cells, the “DNA damage response signalling (ATR, ATM, double strand break markers)” value is recorded as “leads to double strand DNA breaks”.
